Target: Savinase® (subtilisin 309) (UniProt P29600)
Assay: cell-based or functional assay

Sequence of UniProt P29600 (P29600 whole entry): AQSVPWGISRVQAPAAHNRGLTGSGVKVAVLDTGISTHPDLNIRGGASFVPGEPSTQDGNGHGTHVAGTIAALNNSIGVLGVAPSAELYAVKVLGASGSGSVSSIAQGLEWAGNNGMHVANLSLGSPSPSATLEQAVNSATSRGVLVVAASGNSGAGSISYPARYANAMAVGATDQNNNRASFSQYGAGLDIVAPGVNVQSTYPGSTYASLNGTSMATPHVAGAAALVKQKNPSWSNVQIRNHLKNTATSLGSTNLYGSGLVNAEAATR

trypsin inhibitor type IV-0 (Ovo-inhibitor), Sigma T-1886 (from UniProt P10184 69-517)
RA (%) (Residual Activity, Ovo-inhibition Assay; hydrolysis of Suc-Ala-Ala-Pro-Phe-pNA with and without inhibitor): < 5%

— patent publication EP1313846B1
